Measured values: the DeepSol protein solubility set

Test: soluble on expression in E. coli; label from the status in PepcDB or PDB records

| Sequence | soluble on expression in E. coli |
| --- | --- |
| MGSDKIHHHHHHMAGNTIGQLFRVTTFGESHGLALGCIVDGVPPGIPLTEADLQHDLDRRRPGTSRYTTQRREPDQVKILSGVFEGVTTGTSIGLLIENTDQRSQDYSAIKDVFRPGHADYTYEQKYGLRDYRGGGRSSARETAMRVAAGAIAKKYLAEKFGIEIRGCLTQMGDIPLDIKDWSQVEQNPFFCPDPDKIDALDELMRALKKEGDSIGAKVTVVASGVPAGLGEPVFDRLDADIAHALMSINAVKGVEIGDGFDVVALRGSQNRDEITKDGFQSNHAGGILGGISSGQQIIAHMALKPTSSITVPGRTINRFGEEVEMITKGRHDPCVGIRAVPIAEAMLAIVLMDHLLRQRAQNADVKTDIPRW | not soluble |
| MGSDKIHHHHHHMAGRRAIAQNLLISNNDRQERTTRMNDKRNCFLPHDKLQHLIDSLQNAGYSCVGPQVRDGAIVYDVLTRAEQLPWGMRDHQEPGGYRLEQIPERKAFAFANGPQGIKPLLFKPQETVWRVERDEQGKLCFKPHQPDETPVAIIGSRACDLAAMSIQDKVFIENNKPDPRYKRRREQLFVVAVNCTYSSANCFCVSAGTGPAVNNSFDILMTEIEDGFVVEAGSDKGKKIMNQLDLHDAKSAQCTDAQNNVKQAAALQTKRIPLDNKRDLRDLLFSNLNHTRWDDVAERCLSCGNCTLVCPTCFCHSEVEKPGLDGCTSEHHREWDSCFTTGHTYLNGKIIRDDTKKQYRQWLTHKVGSWFDQFDTSGCVGCGRCVTWCPVGIDITEELAAISGESNARKIENE | not soluble |
| MGSDKIHHHHHHMAIRAKTNNLIQIRPLTGRRLANSEHNRQEMKNGATVLTSKPQRLVFELTNACNLNCLMCGRNSATFELTRFNSEWFKKFEPIMSDIEEVTLMGWGEPTIHPQFKEMLQYLHERGIRKYFCTNGMRLDVLKDAIFDYEVDVFAVSMDGADAKTNEFLRRGLNYQKVIEGLKAITNEKALRGLNFPHINFVMTMMKSNIRQLPDMVDLAAELGLNEVKGVFLTAFSENLLEETLFDDMDLVRYCFGQAEERAAKLGILLKLPHQRGEDPAGDAAHKPCFTAWRDFFLGSDGYVRACMSSPEKLFHIDQYPDFESMWNSREYQEWRAQVNVPGKMCPSCGRCYQSSFANWNKEHAFIQIDTEFSPKWEK | not soluble |
| MGSDKIHHHHHHMAKIFDIKYGNDEKQKLDLYLQDSVAPLVFYTHGGGWWQGDKRKDTKIFDSLFSAGFSVASVNYRLADKNNPYPAQLDDCHSALTFLQQSDYKFRKDKIALLGASSGANISVSLSIETGYPTVSWSGQFDFKGFLKTHTAITGRKAVDNPDPDKGSRQQSYYKWLLEKLFNGDLSRVGEATLQHKITSKTGPVLLINSAAELAPVMEVYKMQEAYLENGIEVDTIIFPGDRHALGYADDALKPTIDFLETHLQ | not soluble |
| MGSDKIHHHHHHMAKKKTKFMCQECGYESAKWMGKCPGCQSWNSMVEEFTEVKAKSSRSYVTSGAGIAKPQPITKVEREQEPRIDTSMKELNRVLGGGIVPGSLVLVGGDPGIGKSTLLLQLSARLADLKQRVLYISGEESVKQTKIRSDRLGVLSDHLYVLAETDMEKIEQAIGEVDPTLVIIDSIQTVYQDEITSAPGSVAQVRECTASFMRIAKTTGVAIFIVGHVTKQGAIAGPKLLEHMVDSVLYFEGERHHTYRILRAVKNRFGSTNEMGIFEMKESGLEEVANPSEIFLEDRSSGVAGSTVVASMEGTRPVLVELQALISPTSFGNPRRMATGVDHNRISLLMAVLEKRVGMLLQNQDAYVNVAGGVRLDEPAIDLGIAVSIASSFRNQHTNPHEVVIGEIGLTGEVRRVSRIDQRVNEAAKLGFKRVIIPDKNLGGWTIPSTIEVIGVSTVQDALEVTLGR | not soluble |
| MGSDKIHHHHHHMAKSALRVLEIMEFVATHKAGCATHTEISQALGIPKSSLTALLTDLQRPGYLELDRETGRYAIGSQVMFLAHAYLRNLNIVRLGTPVVHDVFLKLNVYTTMVIPKGDMCLVVCSESLPSPLAHSLSIGQHIPMLHSALGRAILAFLEPEEVERFLHDYTPTPYTDRTKTGIEEVRKALAQVRKAGFAHMQGEYLPGIIGIAVPVFNLENRPIAAIGIGIPAVEGTTEFEKRICKQLLHSADTLSRRLGAKLKPTPSKLLRKGEEE | not soluble |
| MGSDKIHHHHHHMALASTLATCLNSKNTQYDIIHHPYTLSSMATAEAAHIPGDRLAKTLLLEDEMGYVAAVIPSNHHLHMAALCEQTGRKLVLAHEDEIREVFKDCDLGAIPPVAMAYGMQTYVDDSLMKHPDVYFEAGDHQELVHMSMDQFSSLMSDAEQGHFSRRMM | not soluble |
| MGSDKIHHHHHHMALLEVKNLKKYFPIIKRGFRRKVVGYLKAVDGISFHIEEGETLGLVGESGCGKTTTAKLIMRGIEPTEGEIVLNMDGEKVDITKLSEKELREKGVRRFLQMIFQDPYSSLNPRMTVRDIIAEPLVVNGVIKGKEEIDAIVSDLLRAVGLRPEYMQRYPHAFSGGQRQRIAIARAIALKPKLVLCDEPTSALDVSVQAQIINLLKDLQKEYNLTYLFISHDLGVVEHITNRVAVMYVGRIVELAETEELFSSPKHPYTEALLSAVPKPDPKRKRKKAQLTGEVPDPSNPPSGCYFHPRCPYAKAICKEVYPDLRNVGTDQNPHLVACHFADSLKLEGVGTM | not soluble |
| MGSDKIHHHHHHMANEATQELFQVLDNTAIILQNELEISYLEAVYETGENLFQKEVLQKEELSSEKQLKLQASYESIELENFSNEEIRKGLQLALLKGMKHGIQVNHQMTPDSIGFIVAYLLEKVIQKKKNVSILDPACGTANLLTTVINQLELKGDVDVHASGVDVDDLLISLALVGADLQRQKMTLLHQDGLANLLVDPVDVVISDLPVGYYPDDENAKTFELCREEGHSFAHFLFIEQGMRYTKPGGYLFFLVPDAMFGTSDFAKVDKFIKKNGHIEGIIKLPETLFKSEQARKSILILEKADVDVKPPKEVLLANLSSLTDPSVTAPILAEIENWFKSKQ | soluble |
| MGSDKIHHHHHHMANTPLLITLLPSSGVDLSRWLMAHYGVTYEERPHAPIFHVLALKSWGEGKDGYPLFVHADRTTKTVGCRKIAEFFDPSAPADKTLLPDPDAEPELAAQVDDIVKYSYWTIGGDVVNWSYWNFLKYKWVVWPSLTTKVPWYEKLTCLVAFRLIRFLMYKGLKLDQRVADASLKEILAGFDKFDAMLADGRPYLTGDRMTYADLATAAALGPMILAQGYHGMLPNQAKCPVFMQGIYQQLRQRPTGLFIQRMYDQHRPAQLLQI | not soluble |
| MGSDKIHHHHHHMAPRGNQMLGNAHFRKHWHKRIKTWFDQPARKLRRRQNRQAKAVEIAPRPVAGLLRSVVRCPQKRYNTKTRLGRGFSLQELKAAGISQAQARTIGIAVDVRRTNKTAEGLKANADRLKEYKAKLILFPKKASAPKKGDSSAEELKVAAQLRGDVLPLSHTITFDEPRQVTDAERKVEIFRLLRKERADKKYRGKREKRAREAAEENK | not soluble |
| MGSDKIHHHHHHMAPRIKTRDRIAQASLELFNAQGERSVTTNHIATHLGISPGNLYYHYPNKQAIIAELFAEYESHVESFLRLPEGRGLTVDDKTFYLEALLAAMWRYRFLHRDLEHLLESDPELAARYRAFAQRCLVNAKAIYRGFTEAGILRMNETQLEALTLNAWIILTSWVRFLCTTLDLDGDLSEAQLRRGIYQVLALESGHIEAQAQDAVDGISERLYVPL | not soluble |
| MGSDKIHHHHHHMAPRKVIITCAVTGSVHTPSMSPYLPVTPDQIASDAIAAAEAGASILHLHARDPKDGRPTADPDVFMQFLPRIKQATDAVINITTGGSSLMTLDQRLAAPLRAEPEMCSLNMGSMNFALFPMLDKPREWQHEWEPKLLEATRDTIFKNTFADMEGVLERLGKGCGTRFEFECYDVGHLYSLAHFRDRGLVSGPLFIQFVLGILGGIGADPDNLVHMKRIADKLFGDSYQFSVLAAGRQQMPLISIAAAMGGNVRVGLEDSLYDGRQLAKSNADQVRRIRGILDGLSLEVATPAEAREMLALKGGDRVAF | not soluble |
| MGSDKIHHHHHHMAQYSAQFNHAKVLVLGDVMLDRYWFGATNRISPEAPVPVVRVQQNEERAGGAANVAMNIASLNVPVQLLGLTGQDEAGAALTSLLQQQKIACDFVQLATHPTITKLRILSRHQQLLRLDFEEDFQNMTSADLLKKLESAVKNYGALILSDYGKGTLNEVQKMIQIARNANVPVLIDPKGTDFERYRGATLLTPNMSEFEAVVGKCHSEQEIIDKGLKLISEINLTALLVTRSEKGMTLLRPNQPVYHLPTEAKEVFDVTGAGDTVISVLATALADGRSFEEACYLANVAAGIVVGKLGTSTVSTVELENAIHGRTGTGFGVMTEAELKEAVKLAKDRGEKIVMTNGCFDILHPGHVSYLDNARKFGDRLIVAVNTDDSVKRLKGEERPINNLASRMAVLAGLSSVDWLVPFGEDTPQRLIGEVLPDLLVKGGDYKPEEIAGSKEVWANGGDVKVLNFENGFSTSNVIKKIKHLEK | not soluble |
| MGSDKIHHHHHHMARDLQNHLLFEVATEVTNRVGGIYSVLKSKAPVTVAQYGDNYTLLGPLNKATYESEVEKLDWEDESIFPEELLPIQKTLMSMREKGVNFVYGNWLIEGAPRVILFELDSVRHFLNEWKADLWSLVGIPSPEHDHETNDAILLGYVVVWFLGEVSKLDSSHAIIGHFHEWLAGVALPLCRKKRIDVVTIFTTHATLLGRYLCAAGDVDFYNNLQYFDVDQEAGKRGIYHRYCIERAAAHTADVFTTVSQITALEAEHLLKRKPDGILPNGLNVVKFQAVHEFQNLHALKKDKINDFVRGHFHGCFDFDLDNTVYFFIAGRYEYKNKGADMFIESLARLNYRLKVSGSKKTVVAFLIMPAKTNSFTVEALKSQAIVKSLENTVNEVTASIGKRIFEHTMRYPHNGLESELPTNLDELLKSSEKVLLKKRVLALRRPYGELPPVVTHNMCDDANDPILNQIRHVRLFNDSSDRVKVIFHPEFLNANNPILGLDYDEFVRGCHLGVFPSYYEPWGYTPAECTVMGVPSITTNVSGFGAYMEDLIETDQAKDYGIYIVDRRFKSPDESVEQLADYMEEFVNKTRRQRINQRNRTERLSDLLDWKRMGLEYVKARQLGLRRAYPEQFKQLVGETISDANMNTLAGGKKFKIARPLSVPGSPKVRSNSTVYMTPGDLGTLQDANNADDYFNLSTNGAIDNDDDDNDTSAYYEDN | not soluble |
| MGSDKIHHHHHHMATETLTKSDAITQSLRAAVDRNFNDQVAFLQRMVQFRSVRGEEAPQQEWLAQQFADRGYKVDTFSLADVDIASHPKAAPMDTIDPAGSMQVVATADSDGKGRSLILQGHIDVVPEGPVDLWSDPPYEAKVRDGWMIGRGAQDMKGGVSAMIFALDAIRTAGYAPDARVHVQTVTEEESTGNGALSTLMRGYRADACLIPEPTGHTLTRAQVGAVWFRLRVRGTPVHVAYSETGTSAILSAMHLIRAFEEYTKELNAQAVRDPWFGQVKNPIKFNVGIIKGGDWASSTAAWCELDCRLGLLTGDTPQEAMRGIEKCLADAQATDSFLSENPAELVWSGFQADPAVCEPGGVAEDVLTAAHKAAFNAPLDARLSTAVNDTRYYSVDYGIPALCYGPYGQGPHAFDERIDLESLRKTTLSIALFVAEWCGLRKL | not soluble |
| MGSDKIHHHHHHMAYQLRSAALTNYVEVARAVGLDPYQQLRAARISRSVLLDPDIRIPAQAVSRLLESSANAAGIQDFGLRMAETRQLSNLGPLAFAMRQEPTLRRALESMARYLRLQNEAIAMRIEEAEGLVMLRQEALTGVAGSLRQSTDLVVGVLYRVLALVLGPKWRPRSICFSHAAPGSTAMYLRLFGMPVLFNQEFDGIICVASDLEVPLPSYDPTMARQVQQYLDTMLAQSDATISDKVRRLVLALLPSGACTIERVAQHMGVDVRTVQRRLANYDETFSAIVTATRVDLATRYLENRERPLSEVATLLGFGSLSAFSRWFGGHFGCSVSKWRAKGFAKAVKKEGAGRSH | not soluble |
